Source: the supplement of paper PMC9112550, “Optimization of the antimicrobial peptide Bac7 by deep mutational scanning” (BMC Biology, 2022)

Tested on: Escherichia coli TOP10
Assay: shrunken log2 fold change of peptide-encoding DNA abundance (4.5 h post-induction vs induction); higher = less antimicrobial activity (less host growth inhibition)
Conditions: time post-induction: 4.5 h; library: site-saturation at positions 5, 18, 19, 20
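Note: peptides expressed intracellularly from a pBAD plasmid library in pooled LB shake-flask culture, induced with 0.3% L-arabinose, DNA abundance read by NGS, three biological replicates, DESeq2 with apeglm shrinkage.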

Sequence	shrunken log2 fold change
RRIRRRPPRLPRPRPRPDNAPRP	-0.227
RRIRRRPPRLPRPRPRPDNIPRP	0.123
RRIRRRPPRLPRPRPRPDQQPRP	0.0145
RRIRRRPPRLPRPRPRPDQWPRP	0.224
RRIRRRPPRLPRPRPRPDRIPRP	0.14
RRIRRRPPRLPRPRPRPDRVPRP	-0.203
RRIRRRPPRLPRPRPRPDSIPRP	-0.199
RRIRRRPPRLPRPRPRPDTMPRP	0.0801
RRIRRRPPRLPRPRPRPDTTPRP	0.192
RRIRRRPPRLPRPRPRPDWFPRP	0.276
RRIRRRPPRLPRPRPRPDWHPRP	-0.0494
RRIRRRPPRLPRPRPRPDWLPRP	0.365
RRIRRRPPRLPRPRPRPDYFPRP	-0.0877
RRIRRRPPRLPRPRPRPDYNPRP	-0.0973
RRIRRRPPRLPRPRPRPECLPRP	0.635
RRIRRRPPRLPRPRPRPEDGPRP	0.445
RRIRRRPPRLPRPRPRPEDSPRP	0.0554
RRIRRRPPRLPRPRPRPEDWPRP	0.791
RRIRRRPPRLPRPRPRPEEKPRP	-0.00133
RRIRRRPPRLPRPRPRPEERPRP	0.34
RRIRRRPPRLPRPRPRPEEYPRP	-0.173
RRIRRRPPRLPRPRPRPEFDPRP	0.486
RRIRRRPPRLPRPRPRPEGLPRP	2.59
RRIRRRPPRLPRPRPRPEGRPRP	0.89
RRIRRRPPRLPRPRPRPEHWPRP	0.315

Sequence	shrunken log2 fold change
RRIRRRPPRLPRPRPRPEKWPRP	-0.00174
RRIRRRPPRLPRPRPRPELEPRP	1.16
RRIRRRPPRLPRPRPRPELRPRP	0.463
RRIRRRPPRLPRPRPRPEMNPRP	0.406
RRIRRRPPRLPRPRPRPEMSPRP	0.0923
RRIRRRPPRLPRPRPRPENFPRP	-0.0287
RRIRRRPPRLPRPRPRPENTPRP	-0.0822
RRIRRRPPRLPRPRPRPENYPRP	0.0652
RRIRRRPPRLPRPRPRPEQHPRP	0.592
RRIRRRPPRLPRPRPRPERHPRP	0.549
RRIRRRPPRLPRPRPRPESAPRP	0.493
RRIRRRPPRLPRPRPRPESTPRP	0.571
RRIRRRPPRLPRPRPRPETPPRP	1.12
RRIRRRPPRLPRPRPRPETWPRP	0.234
RRIRRRPPRLPRPRPRPEVYPRP	0.0769
RRIRRRPPRLPRPRPRPEWGPRP	0.0686
RRIRRRPPRLPRPRPRPEWHPRP	-0.107
RRIRRRPPRLPRPRPRPEYFPRP	0.2
RRIRRRPPRLPRPRPRPFCAPRP	0.488
RRIRRRPPRLPRPRPRPFECPRP	0.036
RRIRRRPPRLPRPRPRPFEKPRP	-0.0125
RRIRRRPPRLPRPRPRPFEPPRP	0.152
RRIRRRPPRLPRPRPRPFFFPRP	0.504
RRIRRRPPRLPRPRPRPFFVPRP	0.283
RRIRRRPPRLPRPRPRPFFWPRP	0.381

Sequence	shrunken log2 fold change
RRIRRRPPRLPRPRPRPFGVPRP	0.0764
RRIRRRPPRLPRPRPRPFHGPRP	-0.17
RRIRRRPPRLPRPRPRPFIEPRP	0.0206
RRIRRRPPRLPRPRPRPFIHPRP	-0.18
RRIRRRPPRLPRPRPRPFILPRP	-0.293
RRIRRRPPRLPRPRPRPFINPRP	-0.211
RRIRRRPPRLPRPRPRPFKLPRP	-0.0153
RRIRRRPPRLPRPRPRPFNRPRP	-0.557
RRIRRRPPRLPRPRPRPFNWPRP	0.0111
RRIRRRPPRLPRPRPRPFPGPRP	-0.143
RRIRRRPPRLPRPRPRPFQYPRP	-0.0414
RRIRRRPPRLPRPRPRPFSCPRP	0.082
RRIRRRPPRLPRPRPRPFSDPRP	-0.311
RRIRRRPPRLPRPRPRPFSMPRP	0.0721
RRIRRRPPRLPRPRPRPFTAPRP	0.128
RRIRRRPPRLPRPRPRPFTLPRP	-0.2
RRIRRRPPRLPRPRPRPFTNPRP	0.103
RRIRRRPPRLPRPRPRPFVDPRP	0.243
RRIRRRPPRLPRPRPRPFVMPRP	-0.0623
RRIRRRPPRLPRPRPRPFWIPRP	0.0724
RRIRRRPPRLPRPRPRPGDTPRP	0.0234
RRIRRRPPRLPRPRPRPGEFPRP	-0.0272
RRIRRRPPRLPRPRPRPGFAPRP	0.315
RRIRRRPPRLPRPRPRPGGQPRP	0.175
RRIRRRPPRLPRPRPRPGIWPRP	0.455

Sequence	shrunken log2 fold change
RRIRRRPPRLPRPRPRPGKIPRP	0.343
RRIRRRPPRLPRPRPRPGKTPRP	0.104
RRIRRRPPRLPRPRPRPGLNPRP	-0.0395
RRIRRRPPRLPRPRPRPGMGPRP	0.581
RRIRRRPPRLPRPRPRPGNGPRP	0.372
RRIRRRPPRLPRPRPRPGNYPRP	-0.0441
RRIRRRPPRLPRPRPRPGPAPRP	0.562
RRIRRRPPRLPRPRPRPGTAPRP	0.414
RRIRRRPPRLPRPRPRPGTYPRP	-0.0906
RRIRRRPPRLPRPRPRPGWKPRP	0.136
RRIRRRPPRLPRPRPRPGYAPRP	0.259
RRIRRRPPRLPRPRPRPGYDPRP	0.0506
RRIRRRPPRLPRPRPRPHASPRP	0.201
RRIRRRPPRLPRPRPRPHCFPRP	0.118
RRIRRRPPRLPRPRPRPHCKPRP	0.298
RRIRRRPPRLPRPRPRPHDEPRP	0.18
RRIRRRPPRLPRPRPRPHDMPRP	-0.103
RRIRRRPPRLPRPRPRPHDSPRP	-0.0547
RRIRRRPPRLPRPRPRPHFNPRP	-0.11
RRIRRRPPRLPRPRPRPHHSPRP	-0.57
RRIRRRPPRLPRPRPRPHHVPRP	0.296
RRIRRRPPRLPRPRPRPHHYPRP	-0.168
RRIRRRPPRLPRPRPRPHICPRP	-0.0887
RRIRRRPPRLPRPRPRPHIGPRP	-0.155
RRIRRRPPRLPRPRPRPHIYPRP	-0.0628

Sequence	shrunken log2 fold change
RRIRRRPPRLPRPRPRPHLEPRP	0.0779
RRIRRRPPRLPRPRPRPHLQPRP	-0.0319
RRIRRRPPRLPRPRPRPHMPPRP	-0.037
RRIRRRPPRLPRPRPRPHNEPRP	-0.0783
RRIRRRPPRLPRPRPRPHPRPRP	1.03
RRIRRRPPRLPRPRPRPHQMPRP	0.19
RRIRRRPPRLPRPRPRPHQSPRP	0.128
RRIRRRPPRLPRPRPRPHRHPRP	0.0704
RRIRRRPPRLPRPRPRPHRIPRP	-0.279
RRIRRRPPRLPRPRPRPHRMPRP	-0.203
RRIRRRPPRLPRPRPRPHVDPRP	0.027
RRIRRRPPRLPRPRPRPHVKPRP	-0.32
RRIRRRPPRLPRPRPRPHVLPRP	0.0842
RRIRRRPPRLPRPRPRPHVQPRP	-0.143
RRIRRRPPRLPRPRPRPHVSPRP	-0.0166
RRIRRRPPRLPRPRPRPHWIPRP	0.0716
RRIRRRPPRLPRPRPRPHYHPRP	-0.35
RRIRRRPPRLPRPRPRPIADPRP	-0.0686
RRIRRRPPRLPRPRPRPIAQPRP	0.129
RRIRRRPPRLPRPRPRPICCPRP	0.213
RRIRRRPPRLPRPRPRPICDPRP	0.309
RRIRRRPPRLPRPRPRPICPPRP	-0.0986
RRIRRRPPRLPRPRPRPIDNPRP	-0.349
RRIRRRPPRLPRPRPRPIDQPRP	0.696
RRIRRRPPRLPRPRPRPIECPRP	-0.00663

Sequence	shrunken log2 fold change
RRIRRRPPRLPRPRPRPIGHPRP	0.113
RRIRRRPPRLPRPRPRPIGQPRP	0.182
RRIRRRPPRLPRPRPRPIHVPRP	0.03
RRIRRRPPRLPRPRPRPIKQPRP	0.197
RRIRRRPPRLPRPRPRPIKSPRP	-0.254
RRIRRRPPRLPRPRPRPILCPRP	0.48
RRIRRRPPRLPRPRPRPILMPRP	-0.00531
RRIRRRPPRLPRPRPRPINAPRP	0.185
RRIRRRPPRLPRPRPRPINDPRP	-0.219
RRIRRRPPRLPRPRPRPIPAPRP	0.804
RRIRRRPPRLPRPRPRPIPQPRP	0.336
RRIRRRPPRLPRPRPRPIPTPRP	0.063
RRIRRRPPRLPRPRPRPIQDPRP	2.65
RRIRRRPPRLPRPRPRPISAPRP	0.122
RRIRRRPPRLPRPRPRPISTPRP	-0.0842
RRIRRRPPRLPRPRPRPITEPRP	0.0622
RRIRRRPPRLPRPRPRPIVMPRP	-0.0167
RRIRRRPPRLPRPRPRPIWRPRP	0.181
RRIRRRPPRLPRPRPRPIYHPRP	-0.258
RRIRRRPPRLPRPRPRPKADPRP	0.198
RRIRRRPPRLPRPRPRPKAHPRP	0.515
RRIRRRPPRLPRPRPRPKAWPRP	0.0767
RRIRRRPPRLPRPRPRPKAYPRP	0.224
RRIRRRPPRLPRPRPRPKCEPRP	0.0268
RRIRRRPPRLPRPRPRPKCNPRP	-0.0456
